Data as given in patent EP3388527.

Target: T1, GP-1 (human, UniProt Q14242)
T1 chain: QATEYEYLDYDFLPETEPP
Assay: SPR

- binding result: no binding
B1: SelK1 (antibody, V domains shown)
VH: QVQLQQSGPGLVKPSQTLSLTCAISGDSVSSNIAAWHWIRLSPSRGLEWLGRTYYRRSKWNYDYALSVKSRININPDTSKNLFSLQLNSVTPEDTAVYYCTRGGGRAHSAWGQGTLVTVSS
VL: EIVLTQSPGTLSVSPGERATLSCRASQSVSRSHLAWYQQKPGQAPRLLIFGASSRATGIPDRFSGSGSGTDFTLTISRLEPEDFAVYYCQQYGRPGVTFGQGTKVEIK
